In the assay the target is 20S proteasome (human housekeeping 20S core) (human) (UniProt P60900). In words: AFM imaging with morphometric analysis of single particles.
UniProt P60900, sequence (P60900 whole entry, looked up): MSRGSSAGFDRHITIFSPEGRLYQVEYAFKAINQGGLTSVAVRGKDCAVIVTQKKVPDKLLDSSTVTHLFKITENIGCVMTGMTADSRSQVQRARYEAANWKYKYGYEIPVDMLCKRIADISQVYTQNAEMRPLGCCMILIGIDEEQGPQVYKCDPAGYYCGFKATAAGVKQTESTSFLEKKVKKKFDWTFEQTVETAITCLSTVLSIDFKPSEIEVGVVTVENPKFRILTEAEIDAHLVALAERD

In the case of 19S regulatory particle (complex), the percent of particles that are 26S proteasomes (with 2 µM Aβ42 oligomers) turned out to be 52.9% and the percent of particles that are 26S proteasomes (without Aβ) came to 75.8%.

The values above are taken from doi:10.1101/2024.10.23.619877.
